Several values for one entry are separate records, joined by “and”; a condition that tells them apart may be missing. Identical values can stand only once. Like-named read-outs stand apart in the source and are kept apart here. Blank lines part the entries; values can stand above or below the substance they belong to.
Columns and labels:
[1] = target: Phosphatase and tensin homolog deleted on chromosome 10 (PTEN) (African green monkey (endogenous in Vero)); test: co-IP; immunoprecipitation with PTEN, Rak or β-arrestin antibodies from Vero cells, mock, ARV-infected or p17-transfected, also with Rak shRNA, Rock-1 shRNA, Y-27632 or TBB; 500 ug cellular proteins with 4 ug antibody at 4°C overnight; Western blot; amounts normalized to mock controls
[2] = target: Phosphatase and tensin homolog deleted on chromosome 10 (PTEN) (African green monkey (endogenous in Vero)); test: as above; remark: listed apart in the source

Sequence of Rak (P42685 whole entry): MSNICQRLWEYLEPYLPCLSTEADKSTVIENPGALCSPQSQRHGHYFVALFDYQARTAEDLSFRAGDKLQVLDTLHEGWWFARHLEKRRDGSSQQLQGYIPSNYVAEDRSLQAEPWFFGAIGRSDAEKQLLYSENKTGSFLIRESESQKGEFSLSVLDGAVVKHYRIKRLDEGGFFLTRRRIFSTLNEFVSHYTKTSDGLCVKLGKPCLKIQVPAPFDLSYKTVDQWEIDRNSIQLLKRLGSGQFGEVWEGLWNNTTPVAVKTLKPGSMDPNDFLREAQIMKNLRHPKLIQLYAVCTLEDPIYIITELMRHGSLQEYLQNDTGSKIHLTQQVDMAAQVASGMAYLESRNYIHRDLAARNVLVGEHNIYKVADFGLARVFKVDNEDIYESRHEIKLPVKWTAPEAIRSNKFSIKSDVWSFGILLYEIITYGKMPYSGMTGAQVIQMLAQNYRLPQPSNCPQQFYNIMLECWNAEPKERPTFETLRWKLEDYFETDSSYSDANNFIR

fold increase of β-arrestin-PTEN association against mock, ARV-infected cells [1]: 3.5 fold
fold increase of β-arrestin-PTEN association against mock, p17-transfected cells [1]: 6 fold
Substance: β-arrestin (natural protein)

other [2]: 2.35 fold and 2.45 fold
other [1]: 2.8 fold and 3.1 fold
Substance: E3 ligase NEDD4-1 (natural protein)

fold increase of Rak-PTEN association against mock, ARV-infected cells [1]: 3.8 fold
fold increase of Rak-PTEN association against mock, p17-transfected cells [1]: 4.5 fold
Substance: Rak (from UniProt P42685-1 1-505) (natural protein)

Reference: publication PMC4526660
